Target: Human Type IV Collagen (human) (UniProt P02462)
Experiment: ELISA

Sequence of Human Type IV Collagen (human) (P02462 173-1669): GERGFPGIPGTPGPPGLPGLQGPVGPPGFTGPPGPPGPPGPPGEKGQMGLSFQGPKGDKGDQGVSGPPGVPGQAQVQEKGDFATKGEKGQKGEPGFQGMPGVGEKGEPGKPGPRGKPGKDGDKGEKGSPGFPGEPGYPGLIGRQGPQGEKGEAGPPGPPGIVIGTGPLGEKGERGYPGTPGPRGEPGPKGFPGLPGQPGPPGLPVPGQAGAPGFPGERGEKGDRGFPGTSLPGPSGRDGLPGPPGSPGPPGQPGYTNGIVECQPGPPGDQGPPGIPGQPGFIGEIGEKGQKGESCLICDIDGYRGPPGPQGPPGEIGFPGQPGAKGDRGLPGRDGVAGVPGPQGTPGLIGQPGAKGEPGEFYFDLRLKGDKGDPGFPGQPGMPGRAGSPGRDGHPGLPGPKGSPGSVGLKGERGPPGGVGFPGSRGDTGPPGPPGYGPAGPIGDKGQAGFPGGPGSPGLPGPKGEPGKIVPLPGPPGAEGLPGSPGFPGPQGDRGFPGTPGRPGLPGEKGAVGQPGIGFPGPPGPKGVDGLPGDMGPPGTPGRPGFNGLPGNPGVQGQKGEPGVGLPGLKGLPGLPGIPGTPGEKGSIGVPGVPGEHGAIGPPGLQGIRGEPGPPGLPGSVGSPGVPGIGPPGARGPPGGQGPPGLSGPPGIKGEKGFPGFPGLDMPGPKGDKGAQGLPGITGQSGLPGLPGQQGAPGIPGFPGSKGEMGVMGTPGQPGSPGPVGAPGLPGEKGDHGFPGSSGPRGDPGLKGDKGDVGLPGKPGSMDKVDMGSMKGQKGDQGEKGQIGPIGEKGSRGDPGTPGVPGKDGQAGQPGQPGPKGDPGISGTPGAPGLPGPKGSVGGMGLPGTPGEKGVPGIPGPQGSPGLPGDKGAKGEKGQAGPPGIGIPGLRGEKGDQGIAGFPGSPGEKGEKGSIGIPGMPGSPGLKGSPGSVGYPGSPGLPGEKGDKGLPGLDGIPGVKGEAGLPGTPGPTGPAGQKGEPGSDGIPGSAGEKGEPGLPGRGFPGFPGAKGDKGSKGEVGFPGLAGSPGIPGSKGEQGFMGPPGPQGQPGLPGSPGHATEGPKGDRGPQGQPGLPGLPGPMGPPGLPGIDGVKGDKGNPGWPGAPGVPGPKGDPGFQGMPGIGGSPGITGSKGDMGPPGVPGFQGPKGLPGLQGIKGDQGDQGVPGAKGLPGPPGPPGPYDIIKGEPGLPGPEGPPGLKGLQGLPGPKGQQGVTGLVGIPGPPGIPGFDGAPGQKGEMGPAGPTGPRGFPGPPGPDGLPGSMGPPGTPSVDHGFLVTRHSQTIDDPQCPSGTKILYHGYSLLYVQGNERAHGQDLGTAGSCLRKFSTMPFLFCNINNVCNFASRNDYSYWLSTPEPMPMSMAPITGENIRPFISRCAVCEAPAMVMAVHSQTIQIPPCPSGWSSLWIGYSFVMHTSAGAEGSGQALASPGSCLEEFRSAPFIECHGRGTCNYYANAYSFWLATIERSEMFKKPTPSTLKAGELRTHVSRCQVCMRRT

percent reduction of binding by 10 μg/ml ARC1779 against saline: 34%
Substance: von Willebrand factor (human, plasma) (from UniProt P04275 764-2813) (natural protein)
